In patent publication US20250057951A1, “DISCERNIBLE CELL SURFACE PROTEIN VARIANTS OF CD117 FOR USE IN CELL THERAPY” (UNIVERSITÄT BASEL, priority 2021, published 2025):

Key:
[1] = system: variants of CD117; assay: Blocking of SCF-induced CD117 phosphorylation (Tyr719 ELISA), TF-1 cells with CD117 variants; type: cell-based, human; settings: 0.5 ug/mL antibody or 500 nM avapritinib; 100 ng/ml SCF 5 minutes
Protocol: (§1) SCF-dependent phosphorylation is another function of CD117. SCF-dependent phosphorylation was measured using TF-1 cells expressing CD117 (as shown in previous experiments). TF-1 cells were seeded at a concentration of 1 million cells/ml in 1 ml of Medium (RPMI1640 supplemented with GlutaMAX+10% heat inactivated FBS) in a 6-well plate. Cells were treated with 0.5 ug/mL antibody or 500 nM avapratinib. Cells were then treated with 100 ng/ml recombinant human SCF (1 mg/ml PeproGMP® Recombinant Human SCF) for 5 minutes, before cell collection. Cells were washed with ice-cold PBS, before resuspending cells in 250 μL Lysis Buffer (Lysis buffer from Signaling containing Protease Inhibitor and Phosphatase Inhibitor). Cells were flash frozen in liquid nitrogen and thawed at 37° C. twice, before freezing them at −80° C. until further usage. Undiluted samples were thawed and processed according to the manufacturers protocol for the PathScan® Phospho-c-Kit (Tyr719) Sandwich ELISA Kit (Cell Signaling). Absorbance (OD_450 nm) was assessed using the Envision (Perkin Elmer).
(§2) TF-1 cells (wild type, and variants E73K, E73Y, D121K, S123F and S123K of CD117) were seeded at a concentration of 1 million cells/mL in 2 ml of Medium (RPMI1640 supplemented with GlutaMAX+10% heat inactivated FBS) in a 6-well plate. Cells were pre-treated with 0.5 μg/ml of antibodies Refmab #1-Ernie or Refmab #1-Bert for 30 minutes, before adding 100 ng/ml recombinant human SCF (1 mg/mL PeproGMP® Recombinant Human SCF) for 5 minutes. Cells were collected, washed once with ice-cold PBS and resuspended in 500 μL Lysis Buffer (Lysis buffer from Signaling containing Protease Inhibitor and Phosphatase Inhibitor). Cells were then flash frozen in liquid nitrogen and thawed at 37° C. twice, before freezing them at −80° C. until further usage. Undiluted samples were thawed and processed according to the manufacturers protocol for the PathScan Phospho-c-Kit (Tyr719) Sandwich ELISA Kit (Cell Signaling) or the Human c-Kit (CD117) ELISA Kit (Abcam). Absorbance (OD_450 nm) was assessed using the Envision (Perkin Elmer).

[2] = system: CD117; assay: Blocking of SCF-induced CD117 phosphorylation (Tyr719 ELISA), wild type TF-1 cells; type: cell-based, human; settings: 0.5 ug/mL antibody or 500 nM avapritinib; 100 ng/ml SCF 5 minutes
Protocol: as §1, §2

[3] = system: wild type TF-1 cells; assay: Inhibition of SCF-dependent proliferation, wild type TF-1 cells; type: cell-based, human; settings: 100 ng/ml SCF; increasing concentrations; 3 days
Protocol: (§3) SCF-dependent proliferation is another function of CD117. SCF-dependent proliferation was measured as follows: TF-1 cells were seeded at a cell concentration of 150 000 cells/ml in sterile, white cell culture treated plates in RPMI Media+10% FCS. Cells were treated with 100 ng/ml of SCF and a titration of various CD117 antibodies or an isotype control antibody at different concentrations. After 3 days of incubation a CellTiter-Glo 2.0 assay (Promega) was performed and luminescence was read in a luminometer (e.g. Envision or Phera Star plate readers).
(§4) Next, proliferation of the variants was tested with increasing concentrations of RefMab #1 at a constant concentration of SCF (100 ng/ml). TF-1 cells were seeded at a cell concentration of 150 000 cells/ml in sterile, white cell culture treated plates with transparent bottom in RPMI+GlutaMax+10% FCS and a fix concentration of 100 ng/ml SCF in the media, Cells were treated with different concentrations of RefMab #1. After 3 days of incubation a CellTiter-Glo 2,0 assay (Promega) was performed, luminescence was read in a luminometer (Envision plate reader).

[4] = system: TF-1 cells with knock-ins of CD117 variants; assay: Inhibition of SCF-dependent proliferation, TF-1 cells with CD117 variant knock-in; type: cell-based, human; settings: 100 ng/ml SCF; increasing concentrations; 3 days; E73K; all variants tested
Protocol: as §3
CD117 wild-type TF-1 cells were compared to TF1 cells with a E73K knock in. […] Both KI1 and KI2 were obtained upon sorting the edited TF1 cells using the SONY MA900, removing any wild-type and knock out cells from the final subsets, thus yielding high purity of knock in.
as §4

[5] = biological target: T1, Biotinylated Avitag-hSCF (human, UniProt P21583 26-190, limits assumed, biotinylated Avitag); assay: BLI (Octet), steady state: biotinylated SCF on streptavidin biosensor, CD117 D1-2-3 variant as analyte
T1 construct: Bought reagent; also called hSCF (Acros Biosystems SCF-H82E1)
Protocol: Domains 4 and 5 were used as a negative, non-binding control.
Association was monitored for 300 s and dissociation for 600 s. […] Reference subtraction was performed against buffer only wells. Biosensors were not regenerated and a new set of SA biosensors was used for each analyte. Data were analyzed using the Octet Data Analysis software HT 12.0. Steady state data analysis was performed due to the fast on/off nature of the interaction.

[6] = system: Refmab #3; assay: Octet: binding of CD117 variants to Refmab #3; settings: qualitative Octet analysis
Protocol: A more sophisticated analysis of binding to the elected variants was performed with antibody Refmab #1. Binding of Refmab #1 to wt and variants (analyte) was measured in an Octet system RED96e or R8 at 25° C. with shaking at 1,000 rpm using 1× kinetic buffer (Sartorius, PN: 18-1105). First, the elected variants were screened for their ability to bind Refmab #1 using three different concentrations of analytes. Antibody Refmab #1 was captured by Anti-Human Fc capture biosensor (AHC) (Sartorius, PN: 18-5060) for 300 s at 0.5 to 1 μg/mL. As an analyte, human CD117 wt and variants, containing only domains 1, 2 and 3 (CD117 D1-2-3), was titrated at 500 nM, 50 nM and 5 nM. Association and dissociation of the analyte to Refmab #1 was monitored for 300 s and 900 s, respectively. Reference subtraction was performed against buffer only wells. AHC tips were regenerated using 10 mM Gly-HCl pH 1.7. Data were analyzed using the Octet Data Analysis software HT 12.0. Data were fitted (when possible) to a 1:1 binding model. Kinetic rates ka and […] globally fitted. Binding level of the elected variants were compared to wild type and are shown as percent in FIG. 7. For this qualitative analysis, the binding level of the top analyte concentration at end of the association step was used.
A similar experiment to that in Example 7 was performed, but utilizing Refmab's #2 and #3.

[7] = biological target: T2, human wild-type CD117 (human, UniProt P10721 26-976); assay: flow cytometry, HEK-293T with wt CD117 vs vector alone, IgG at 0.125 µg/mL
T2 construct: also called wt CD117; KIT
Protocol: Binding of the antibodies to the transfected cells and the optimal assay conditions were evaluated in 384-well format. Detection of cellular expression was measured via high-throughput flow cytometry. Serial dilutions of each antibody were tested for immunoreactivity against cells expressing CD117 or vector alone. The optimal screening concentration for each antibody was determined based on the raw signal values and signal-to-background calculations. Each point represents the mean of four replicates.

[8] = biological target: T2, human wild-type CD117; assay: flow cytometry, HEK-293T with wt CD117 vs vector alone, Fab at 1.00 µg/mL

Sequence of Refmab #3 (as listed by the source): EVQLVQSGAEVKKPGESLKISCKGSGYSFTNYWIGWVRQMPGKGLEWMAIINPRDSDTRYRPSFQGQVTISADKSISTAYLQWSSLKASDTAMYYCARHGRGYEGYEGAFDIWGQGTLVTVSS
Sequence of Refmab #3 (as listed by the source): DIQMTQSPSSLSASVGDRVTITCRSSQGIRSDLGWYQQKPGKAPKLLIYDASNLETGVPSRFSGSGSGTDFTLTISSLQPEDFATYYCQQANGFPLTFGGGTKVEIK
T1 sequence (P21583 26-190 limits assumed): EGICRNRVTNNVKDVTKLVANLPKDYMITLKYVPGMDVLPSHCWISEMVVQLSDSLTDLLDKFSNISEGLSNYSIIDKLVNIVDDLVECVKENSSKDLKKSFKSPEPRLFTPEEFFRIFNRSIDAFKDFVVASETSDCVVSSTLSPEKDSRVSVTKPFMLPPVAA

## Cn1cc(-c2cc3c(N4CCN(c5ncc([C@@](C)(N)c6ccc(F)cc6)cn5)CC4)ncnn3c2)cn1 [avapritinib, reference compound]
[1]
  blocking of SCF-induced phosphorylation, E73K variant: still blocks
[2]
  blocking of SCF-induced phosphorylation, wild type cells: blocked
[3]
  effect on SCF-dependent proliferation of wild type TF-1 cells: no proliferation
[4]
  effect on SCF-dependent proliferation of TF-1 cells with CD117 variants: no proliferation

B1: S261V (receptor)
extracellular domains 1, 2 and 3: QPSVSPGEPSPPSIHPGKSDLIVRVGDEIRLLCTDPGFVKWTFEILDETNENKQNEWITEKAEATNTGKYTCTNKHGLSNSIYVFVRDPAKLFLVDRSLYGKEDNDTLVRCPLTDPEVTNYSLKGCQGKPLPKDLRFIPDPKAGIMIKSVKRAYHRLCLHCSVDQEGKSVLSEKFILKVRPAFKAVPVVSVSKASYLLREGEEFTVTCTIKDVSSSVYSTWKRENSQTKLQEKYNVWHHGDFNYERQATLTISSARVNDSGVFMCYANNTFGSANVTTTLEVVD
notes: not in the list MOLECULES; also called human CD117 D1-2-3 variant S261V
[5]
  binding result: no binding (tested: 1000 nM (not on the sheet))
[6]
  binding to Refmab #3 compared to wild type CD117: strong decrease in binding

B2: Refmab #4 (antibody, V domains shown)
VH: EVQLVESGGGLVQPGGSLRLSCAASGFSISVYMMHWVRQAPGKGLEWVASIYPYSGYTYYADSVKGRFTISADTSKNTAYLQMNSLRAEDTAVYYCARYVYHALDYWGQGTLVTVSS
VL: DIQMTQSPSSLSASVGDRVTITCRASQSVSSAVAWYQQKPGKAPKLLIYSASSLYSGVPSRFSGSRSGTDFTLTISSLQPEDFATYYCQQWAVHSLITFGQGTKVEIKR
[7]
  Signal:Background: 7 ratio to background

B3: Refmab #4 Fab fragment (Fab, V domains shown)
VH: B2 VH
VL: B2 VL
[8]
  Signal:Background: 6 ratio to background

B4: Refmab #5 (antibody, V domains shown)
VH: EVRLVESEGGLVQPRSSMKLSCTASGFTFSDYYMAWVRQVPEKGLEWVANINYDGSSTYYLDSLKSRFIISRDNAKNILYLQMSSLKSEDTATYYCARGDYYGTTYWYFDVWGTGTTVTVSS
VL: DIQMTQTTSSLSASLGDRVTISCRASQDISNYLNWYQQKPDGTVKLLIYYTSRLQSGVPSRFSGSGSGTDYSLTISNLEQEDIATYFCQQGKKLWSFGGGTKLEIKR
[7]
  Signal:Background: 10 ratio to background

B5: Refmab #5 Fab fragment (Fab, V domains shown)
VH: B4 VH
VL: B4 VL
[8]
  Signal:Background: 7 ratio to background
